Results published in patent US20070042353.

Assays:
[1] = target: HCV NS5B531 (Hepatitis C virus (BK strain, genotype 1b)) (UniProt P26663); details: [3H]UTP incorporation, 5 mM MgCl2, 50 mM NaCl, pH 7.5, 25 C, 90 min
[2] = target: HCV NS5B591 (full length) (Hepatitis C virus (BK strain, genotype 1b)) (UniProt P26663); details: reference enzyme; [3H]UTP incorporation, 5 mM MgCl2, 50 mM NaCl, pH 7.5, 25 C, 90 min
[3] = target: HCV NS5B552 (Hepatitis C virus (BK strain, genotype 1b)) (UniProt P26663); details: [3H]UTP incorporation, 5 mM MgCl2, 50 mM NaCl, pH 7.5, 25 C, 90 min
[4] = target: HCV NS5B570 (Hepatitis C virus (BK strain, genotype 1b)) (UniProt P26663); details: [3H]UTP incorporation, 5 mM MgCl2, 50 mM NaCl, pH 7.5, 25 C, 90 min
[5] = target: HCV NS5B544 (Hepatitis C virus (BK strain, genotype 1b)) (UniProt P26663); details: [3H]UTP incorporation, 5 mM MgCl2, 50 mM NaCl, pH 7.5, 25 C, 90 min
[6] = target: HCV NS5B536 (Hepatitis C virus (BK strain, genotype 1b)) (UniProt P26663); details: [3H]UTP incorporation, 5 mM MgCl2, 50 mM NaCl, pH 7.5, 25 C, 90 min

Substance: HCV NS5B 3' end + 3'UTR (polyU and 3'X) template RNA, about 450 nt
- activity [1]: 2150 % of NS5B591
- activity [2]: 100 % of NS5B591
- activity [3]: 147 % of NS5B591
- activity [4]: 3 % of NS5B591
- activity [5]: 2010 % of NS5B591
- activity [6]: 2110 % of NS5B591
